{
  "source": "the supplement of paper PMC9112550",
  "about": "“Optimization of the antimicrobial peptide Bac7 by deep mutational scanning” (BMC Biology, 2022);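 note: peptides expressed intracellularly from a pBAD plasmid library in pooled LB shake-flask culture, induced with 0.3% L-arabinose, DNA abundance read by NGS, three biological replicates, DESeq2 with apeglm shrinkage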",
  "data": [
    {"tested_on": "Escherichia coli TOP10", "experiment": "shrunken log2 fold change of peptide-encoding DNA abundance (4.5 h post-induction vs induction); higher = less antimicrobial activity (less host growth inhibition)", "settings": "time post-induction: 4.5 h; library: site-saturation at positions 5, 18, 19, 20", "values": [
      {"sequence": "RRIRVRPPRLPRPRPRPRGAPRP", "shrunken log2 fold change": 0.567},
      {"sequence": "RRIRYRPPRLPRPRPRPLCKPRP", "shrunken log2 fold change": -0.588},
      {"sequence": "RRIRSRPPRLPRPRPRPRTDPRP", "shrunken log2 fold change": 0.0755},
      {"sequence": "RRIRVRPPRLPRPRPRPYQHPRP", "shrunken log2 fold change": -0.301},
      {"sequence": "RRIRFRPPRLPRPRPRPIHAPRP", "shrunken log2 fold change": -0.0507},
      {"sequence": "RRIRGRPPRLPRPRPRPCINPRP", "shrunken log2 fold change": 0.573},
      {"sequence": "RRIRTRPPRLPRPRPRPVIKPRP", "shrunken log2 fold change": -0.237},
      {"sequence": "RRIRNRPPRLPRPRPRPHTTPRP", "shrunken log2 fold change": -0.235},
      {"sequence": "RRIRARPPRLPRPRPRPLIKPRP", "shrunken log2 fold change": 0.0844},
      {"sequence": "RRIRKRPPRLPRPRPRPQGHPRP", "shrunken log2 fold change": 0.0492},
      {"sequence": "RRIRLRPPRLPRPRPRPHDQPRP", "shrunken log2 fold change": 0.276},
      {"sequence": "RRIRERPPRLPRPRPRPNYDPRP", "shrunken log2 fold change": -0.873},
      {"sequence": "RRIRMRPPRLPRPRPRPTIRPRP", "shrunken log2 fold change": 0.0273},
      {"sequence": "RRIRTRPPRLPRPRPRPFFDPRP", "shrunken log2 fold change": -0.429},
      {"sequence": "RRIRTRPPRLPRPRPRPSQRPRP", "shrunken log2 fold change": 0.0168},
      {"sequence": "RRIRVRPPRLPRPRPRPHVFPRP", "shrunken log2 fold change": -0.0624},
      {"sequence": "RRIRYRPPRLPRPRPRPVSGPRP", "shrunken log2 fold change": -0.128},
      {"sequence": "RRIRHRPPRLPRPRPRPCSDPRP", "shrunken log2 fold change": -0.101},
      {"sequence": "RRIRLRPPRLPRPRPRPSLFPRP", "shrunken log2 fold change": -0.373},
      {"sequence": "RRIRKRPPRLPRPRPRPHSVPRP", "shrunken log2 fold change": 0.11},
      {"sequence": "RRIRMRPPRLPRPRPRPGGAPRP", "shrunken log2 fold change": 1.17},
      {"sequence": "RRIRPRPPRLPRPRPRPWWTPRP", "shrunken log2 fold change": -0.311},
      {"sequence": "RRIRVRPPRLPRPRPRPRRTPRP", "shrunken log2 fold change": 0.115},
      {"sequence": "RRIRARPPRLPRPRPRPVNPPRP", "shrunken log2 fold change": -0.00864},
      {"sequence": "RRIRPRPPRLPRPRPRPLAMPRP", "shrunken log2 fold change": 0.193},
      {"sequence": "RRIRNRPPRLPRPRPRPMCNPRP", "shrunken log2 fold change": -0.0631},
      {"sequence": "RRIRYRPPRLPRPRPRPITWPRP", "shrunken log2 fold change": -0.353},
      {"sequence": "RRIRPRPPRLPRPRPRPDTKPRP", "shrunken log2 fold change": -0.0208},
      {"sequence": "RRIRERPPRLPRPRPRPPKCPRP", "shrunken log2 fold change": 0.0212},
      {"sequence": "RRIRTRPPRLPRPRPRPKFLPRP", "shrunken log2 fold change": 0.0687},
      {"sequence": "RRIRPRPPRLPRPRPRPAIIPRP", "shrunken log2 fold change": -0.112},
      {"sequence": "RRIRLRPPRLPRPRPRPVAWPRP", "shrunken log2 fold change": 0.225},
      {"sequence": "RRIRFRPPRLPRPRPRPQLIPRP", "shrunken log2 fold change": -0.313},
      {"sequence": "RRIRRRPPRLPRPRPRPKPPPRP", "shrunken log2 fold change": 0.735},
      {"sequence": "RRIRERPPRLPRPRPRPYHMPRP", "shrunken log2 fold change": -0.021},
      {"sequence": "RRIRPRPPRLPRPRPRPRIWPRP", "shrunken log2 fold change": 0.362},
      {"sequence": "RRIRWRPPRLPRPRPRPVTIPRP", "shrunken log2 fold change": -0.269},
      {"sequence": "RRIRMRPPRLPRPRPRPPRLPRP", "shrunken log2 fold change": 1.06},
      {"sequence": "RRIRHRPPRLPRPRPRPMNNPRP", "shrunken log2 fold change": -0.759},
      {"sequence": "RRIRSRPPRLPRPRPRPWWWPRP", "shrunken log2 fold change": 0.0716},
      {"sequence": "RRIRLRPPRLPRPRPRPISSPRP", "shrunken log2 fold change": 0.106},
      {"sequence": "RRIRMRPPRLPRPRPRPPNHPRP", "shrunken log2 fold change": 0.206},
      {"sequence": "RRIRERPPRLPRPRPRPDSYPRP", "shrunken log2 fold change": -0.00865},
      {"sequence": "RRIRHRPPRLPRPRPRPFISPRP", "shrunken log2 fold change": -0.387},
      {"sequence": "RRIRYRPPRLPRPRPRPQYPPRP", "shrunken log2 fold change": -0.733},
      {"sequence": "RRIRKRPPRLPRPRPRPQDAPRP", "shrunken log2 fold change": 0.027},
      {"sequence": "RRIRIRPPRLPRPRPRPFNEPRP", "shrunken log2 fold change": -0.331},
      {"sequence": "RRIRIRPPRLPRPRPRPFECPRP", "shrunken log2 fold change": -0.0837},
      {"sequence": "RRIRIRPPRLPRPRPRPGGRPRP", "shrunken log2 fold change": 0.229},
      {"sequence": "RRIRSRPPRLPRPRPRPYKVPRP", "shrunken log2 fold change": -0.0179},
      {"sequence": "RRIRHRPPRLPRPRPRPVSWPRP", "shrunken log2 fold change": 0.442},
      {"sequence": "RRIRKRPPRLPRPRPRPKKGPRP", "shrunken log2 fold change": 0.368},
      {"sequence": "RRIRMRPPRLPRPRPRPEMTPRP", "shrunken log2 fold change": -0.00169},
      {"sequence": "RRIRRRPPRLPRPRPRPRQFPRP", "shrunken log2 fold change": 0.225},
      {"sequence": "RRIRKRPPRLPRPRPRPWCLPRP", "shrunken log2 fold change": -0.503},
      {"sequence": "RRIRARPPRLPRPRPRPCWCPRP", "shrunken log2 fold change": 0.721},
      {"sequence": "RRIRYRPPRLPRPRPRPAVQPRP", "shrunken log2 fold change": -0.505},
      {"sequence": "RRIRVRPPRLPRPRPRPVDGPRP", "shrunken log2 fold change": 0.021},
      {"sequence": "RRIRDRPPRLPRPRPRPMRLPRP", "shrunken log2 fold change": 0.674},
      {"sequence": "RRIRHRPPRLPRPRPRPDINPRP", "shrunken log2 fold change": -0.0579},
      {"sequence": "RRIRKRPPRLPRPRPRPEAPPRP", "shrunken log2 fold change": 0.957},
      {"sequence": "RRIRRRPPRLPRPRPRPMYVPRP", "shrunken log2 fold change": -0.203},
      {"sequence": "RRIRKRPPRLPRPRPRPSAGPRP", "shrunken log2 fold change": 0.227},
      {"sequence": "RRIRPRPPRLPRPRPRPPWPPRP", "shrunken log2 fold change": 0.688},
      {"sequence": "RRIRKRPPRLPRPRPRPAQDPRP", "shrunken log2 fold change": 0.679},
      {"sequence": "RRIRGRPPRLPRPRPRPSTHPRP", "shrunken log2 fold change": 0.159},
      {"sequence": "RRIRSRPPRLPRPRPRPRIKPRP", "shrunken log2 fold change": -0.00375},
      {"sequence": "RRIRQRPPRLPRPRPRPPTSPRP", "shrunken log2 fold change": -0.00728},
      {"sequence": "RRIRNRPPRLPRPRPRPWIGPRP", "shrunken log2 fold change": -0.128},
      {"sequence": "RRIRMRPPRLPRPRPRPPMGPRP", "shrunken log2 fold change": 0.921},
      {"sequence": "RRIRRRPPRLPRPRPRPGDVPRP", "shrunken log2 fold change": 0.249},
      {"sequence": "RRIRKRPPRLPRPRPRPFCAPRP", "shrunken log2 fold change": 0.588},
      {"sequence": "RRIRFRPPRLPRPRPRPMAKPRP", "shrunken log2 fold change": -0.0311},
      {"sequence": "RRIRFRPPRLPRPRPRPQFYPRP", "shrunken log2 fold change": -0.592},
      {"sequence": "RRIRNRPPRLPRPRPRPMSTPRP", "shrunken log2 fold change": -0.0292}
    ]}
  ]
}
